Experimental data reported in paper PMC3032881.

Key:
[1] = target: soluble recombinant HLA A*0201 (α chain tagged with a biotinylation sequence, with β2m); assay: SPR; real time pMHC stability assay, BIAcore 3000, CM5 chip; ~500 RU of biotinylated refolded pMHCI immobilised on streptavidin; flow 10 μl/min for 15,000 s; Langmuir dissociation analysis converted to half-life
[2] = target: HLA A*0201 on the surface of TAP deficient T2 cells (human (endogenous in T2 cells)); assay: flow cytometry on cells; T2-binding assay: TAP deficient T2 cells with peptide at 100, 50, 10 and 1 μM in AIM-V, 10 min 37 °C, room temperature overnight, 2 h 37 °C; surface HLA A*0201 stained with anti-human HLA A*0201:RPE; MFI fitted (log(agonist) vs. response) to logEC50

Substance	half-life [1]	koff [1]	LogEC50 [2]
NY-ESO-1 157-165 peptide …	8.9 h	2.2e-05 s⁻¹	-3.53 M
PSA 178-187 peptide …	16.9 h	1.1e-05 s⁻¹	-4.3 M
